# Entries after “also recorded” stand apart in the source; their conditions may differ.
# Tests used:
# chronic wound biofilm = assay: Topical treatment of patients' chronic/non-healing wounds in the clinic (case reports and clinical experience); assay type: in vivo, human; settings: for wound healing outcome: topical application with debridement and other wound care
# Text: The composition is preferably applied following wound debridement. Although biofilm bacteria cannot be completely eradicated from the wound area by debridement, decreasing biofilm mass and providing increased exposure of the debrided tissue and remaining biofilm bacteria to the inventive compositions increases wound healing. […] It is therefore of benefit to debride the slough from the wound as completely as possible. Debridement can be performed by surgical, mechanical, autolytic, enzymatic, or a combination of means known to those of skill in the art of wound care. Furthermore, standard gauze dressings to pack or cover the wound will preferably be avoided, since those dressings may enhance biofilm formation or reconstitution in the wound. If used, such dressings may, however, be coated or impregnated with a composition of the present invention to decrease the biofilm-enhancing properties of a gauze dressing.
# Topical wound care compositions may comprise about 2 to about 200 mg of MDPP or MDPP-A per cubic centimeter of total composition. In one embodiment, a composition comprises about 20 to about 200 mg of MDPP or MDPP-A, provided as Bioferrino®1000 or Bioferrin®2000, per cubic centimeter of total composition and about 1 to about 50, or in some embodiments about 5 to about 20, percent (w/v) xylitol. In one embodiment, this composition may be admixed into a methylcellulose/gelatin gel. This composition can be applied, in an amount of about ½ to about 5 cc of protein isolate/xylitol composition to each one square centimeter of wound area, to a freshly debrided chronic wound after the slough has been removed.
# Xylitol (one-, two-, three-, four-, and five-xypentane hydro from Spectrum Chemical) comprised the second active ingredient, and was present at a concentration of 5% by weight of the mixture. The base gel of the composition comprised methylcellulose (0.023 gm/cc), gelatin (0.013 gm/cc) and sterile water.
# oral ulcers = settings: hamsters; cited from earlier work
# P. aeruginosa = settings: in vitro; cited from earlier work
# Streptococcus mutans = settings: lactoferrin and iron depletion; cited from earlier work
# [1] = individual patient case reports
molecule,measurement,setting,value
"lactoferrin: iron-binding glycoprotein, 75,000-80,000 Daltons; in Examples 2-11 applied as Bioferrin with xylitol in gel (protein, UniProt P24627 20-708, looked up) Lactotransferrin: APRKNVRWCTISQPEWFKCRRWQWRMKKLGAPSITCVRRAFALECIRAIAEKKADAVTLDGGMVFEAGRDPYKLRPVAAEIYGTKESPQTHYYAVAVVKKGSNFQLDQLQGRKSCHTGLGRSAGWIIPMGILRPYLSWTESLEPLQGAVAKFFSASCVPCIDRQAYPNLCQLCKGEGENQCACSSREPYFGYSGAFKCLQDGAGDVAFVKETTVFENLPEKADRDQYELLCLNNSRAPVDAFKECHLAQVPSHAVVARSVDGKEDLIWKLLSKAQEKFGKNKSRSFQLFGSPPGQRDLLFKDSALGFLRIPSKVDSALYLGSRYLTTLKNLRETAEEVKARYTRVVWCAVGPEEQKKCQQWSQQSGQNVTCATASTTDDCIVLVLKGEADALNLDGGYIYTAGKCGLVPVLAENRKSSKHSSLDCVLRPTEGYLAVAVVKKANEGLTWNSLKDKKSCHTAVDRTAGWNIPMGLIVNQTGSCAFDEFFSQSCAPGADPKSRLCALCAGDDQGLDKCVPNSKEKYYGYTGAFRCLAEDVGDVAFVKNDTVWENTNGESTADWAKNLNREDFRLLCLDGTRKPVTEAQSCHLAVAPNHAVVSRSDRAAHVKQVLLHQQALFGKNGKNCPDKFCLFKSETKNLLFNDNTECLAKLGGRPTYEEYLGTEYVTAIANLKKCSTSPLLEACAFLTR","inhibition of biofilm reconstitution / response of wounds, clinical experience","chronic wound biofilm; chronic wounds after debridement, comparative statements",inhibits reconstitution of an existing biofilm in a chronic wound
same,slough (biofilm) in the wound bed during therapy,chronic wound biofilm; [1],no evidence of slough
same,wound healing outcome,chronic wound biofilm; [1],the wound healed; also recorded: almost completely healed
same,wound healing outcome,"chronic wound biofilm; individual patient case reports, listed as Lactoferrin",complete healing of their wound
same,time to complete healing / closure of wound,chronic wound biofilm; patients with venous leg wounds,5 weeks
same,efficacy for treating oral ulcers,oral ulcers,not effective
same,effect on biofilm formation,P. aeruginosa,block biofilm formation
same,effect on biofilm formation,Streptococcus mutans,stimulate biofilm formation
